Kd data for 2 molecules are collected here from article PMC6009593 (Nucleic Acids Research, 2018).

B1: Pyrococcus furiosus Proliferating Cell Nuclear Antigen (PfuPCNA) (natural protein)
chain: MPFEIVFEGAKEFAQLIDTASKLIDEAAFKVTEDGISMRAMDPSRVVLIDLNLPSSIFSKYEVVEPETIGVNMDHLKKILKRGKAKDTLILKKGEENFLEITIQGTATRTFRVPLIDVEEMEVDLPELPFTAKVVVLGEVLKDAVKDASLVSDSIKFIARENEFIMKAEGETQEVEIKLTLEDEGLLDIEVQEETKSAYGVSYLSDMVKGLGKADEVTIKFGNEMPMQMEYYIRDEGRLTFLLAPRVEE

For test [1], the target named is Pyrococcus furiosus Mre11–Rad50 complex, wild type, full length (PfuMR wt) (Pyrococcus furiosus, UniProt Q8U1N9 1-426; P58301 1-882). As to the kind of experiment: SPR.
Sequence of Pyrococcus furiosus Mre11–Rad50 complex, wild type, full length (PfuMR wt) (P58301 whole entry, one chain of several): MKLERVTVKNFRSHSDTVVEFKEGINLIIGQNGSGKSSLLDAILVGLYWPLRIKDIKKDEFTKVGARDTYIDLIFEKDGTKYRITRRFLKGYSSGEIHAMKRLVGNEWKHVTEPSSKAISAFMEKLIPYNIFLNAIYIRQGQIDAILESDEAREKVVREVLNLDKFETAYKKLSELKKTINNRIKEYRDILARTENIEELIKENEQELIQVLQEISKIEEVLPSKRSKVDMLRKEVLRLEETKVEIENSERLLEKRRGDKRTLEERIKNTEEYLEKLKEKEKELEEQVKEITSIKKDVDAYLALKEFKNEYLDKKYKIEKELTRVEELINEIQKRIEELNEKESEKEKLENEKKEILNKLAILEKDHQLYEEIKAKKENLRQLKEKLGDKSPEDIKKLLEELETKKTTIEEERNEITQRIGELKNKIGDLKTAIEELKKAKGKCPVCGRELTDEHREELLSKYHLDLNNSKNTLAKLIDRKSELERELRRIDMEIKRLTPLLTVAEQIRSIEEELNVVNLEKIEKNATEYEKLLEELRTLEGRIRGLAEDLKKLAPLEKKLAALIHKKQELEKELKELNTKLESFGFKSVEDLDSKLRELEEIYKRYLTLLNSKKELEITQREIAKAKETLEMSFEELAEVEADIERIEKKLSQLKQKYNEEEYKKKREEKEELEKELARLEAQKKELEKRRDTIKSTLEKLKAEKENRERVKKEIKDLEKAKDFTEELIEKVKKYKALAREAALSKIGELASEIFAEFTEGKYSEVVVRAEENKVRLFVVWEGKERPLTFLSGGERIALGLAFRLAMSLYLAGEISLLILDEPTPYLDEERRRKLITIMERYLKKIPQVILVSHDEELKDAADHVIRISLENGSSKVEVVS
Test [2] addresses B1. As to the kind of experiment: SPR. (Surface plasmon resonance follows binding to a sensor surface in real time, without labels.)

By Kd is commonly meant a measure of binding affinity in units of concentration. A lower Kd goes with a tighter complex. In the case of B1, the Kd in test [1] is ~0.00407 µM.

B2: PIP-like Mre11 peptide (PfuMre11 412–424) (peptide)
peptide: Ac-KKKRGTLDSWLGG-NH2
In test [2], B2 registered a Kd of 4.05 µM.
